This note sets out measurements from patent US12642846B2.

This experiment deals with ZIKV sE-WT protein (Zika virus). Nature of the experiment: SPR (BIOCORE8000), sE amine-coupled on CM5 chip, antibody as mobile phase.

2A10G6 antibody had a dissociation constant (Kd) of 9.13 nM.

One may read the Kd as the concentration at which binding is half-saturated. Read a low Kd as a tighter complex.
